T1: EsCas13d, nuclease-dead (Eubacterium siraeum, UniProt B0MS50, R295A;H300A;R849A;H854A)
T1 sequence: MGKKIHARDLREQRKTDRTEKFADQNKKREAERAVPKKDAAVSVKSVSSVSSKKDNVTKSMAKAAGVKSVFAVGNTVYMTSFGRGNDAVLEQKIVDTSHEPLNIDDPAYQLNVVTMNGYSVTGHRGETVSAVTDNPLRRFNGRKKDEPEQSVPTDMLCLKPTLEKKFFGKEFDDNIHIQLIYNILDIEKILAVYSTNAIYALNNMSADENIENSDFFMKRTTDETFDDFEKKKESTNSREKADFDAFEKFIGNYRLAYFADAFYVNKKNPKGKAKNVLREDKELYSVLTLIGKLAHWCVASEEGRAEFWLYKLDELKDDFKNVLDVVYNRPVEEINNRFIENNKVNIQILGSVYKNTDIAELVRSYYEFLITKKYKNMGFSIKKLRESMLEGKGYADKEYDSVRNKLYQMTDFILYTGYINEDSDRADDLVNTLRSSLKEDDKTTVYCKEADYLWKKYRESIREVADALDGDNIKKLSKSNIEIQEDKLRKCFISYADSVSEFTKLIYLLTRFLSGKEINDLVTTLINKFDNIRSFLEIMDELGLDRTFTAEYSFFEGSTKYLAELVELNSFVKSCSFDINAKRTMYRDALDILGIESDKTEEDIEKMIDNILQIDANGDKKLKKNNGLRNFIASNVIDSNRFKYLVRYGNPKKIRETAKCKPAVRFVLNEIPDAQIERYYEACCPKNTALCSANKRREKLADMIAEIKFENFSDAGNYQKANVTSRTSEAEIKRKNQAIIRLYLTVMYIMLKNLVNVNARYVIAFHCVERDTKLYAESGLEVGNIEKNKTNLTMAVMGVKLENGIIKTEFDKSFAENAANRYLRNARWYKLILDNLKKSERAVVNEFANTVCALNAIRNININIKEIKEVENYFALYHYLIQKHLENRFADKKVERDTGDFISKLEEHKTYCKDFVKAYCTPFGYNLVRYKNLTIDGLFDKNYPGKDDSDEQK

B1: target 1 insC 3' of 18,insA 3' of 8 (mixed)
RNA 1: CACCCGUGCAAAAAUGCAGGGGUCUAAAACUGAGCGGAUAACCUCUCUAUGG
RNA 2: GGGAAUGGAUCCACAUCUACGAAUUCGUACCAUACGAGAGGUUAUACCGCUCACCGAGAUCGGAAGAGCACACGU
B2: target 1 G5A,G12U (mixed)
RNA 1: CACCCGUGCAAAAAUGCAGGGGUCUAAAACUGAGCGGAUAACCUCUCUAUGG
RNA 2: GGGAAUGGAUCCACAUCUACGAAUUCGUACCAUAGAGAGUUUAUCCACUCACCGAGAUCGGAAGAGCACACGU
B3: target 1 C2G,G13U (mixed)
RNA 1: CACCCGUGCAAAAAUGCAGGGGUCUAAAACUGAGCGGAUAACCUCUCUAUGG
RNA 2: GGGAAUGGAUCCACAUCUACGAAUUCGUACCAUAGAGAUGUUAUCCGCUGACCGAGAUCGGAAGAGCACACGU
B4: target 1 C2U,U3G (mixed)
RNA 1: CACCCGUGCAAAAAUGCAGGGGUCUAAAACUGAGCGGAUAACCUCUCUAUGG
RNA 2: GGGAAUGGAUCCACAUCUACGAAUUCGUACCAUAGAGAGGUUAUCCGCGUACCGAGAUCGGAAGAGCACACGU
B5: target 1 insC 3' of 20,insC 3' of 9 (mixed)
RNA 1: CACCCGUGCAAAAAUGCAGGGGUCUAAAACUGAGCGGAUAACCUCUCUAUGG
RNA 2: GGGAAUGGAUCCACAUCUACGAAUUCGUACCACUAGAGAGGUUACUCCGCUCACCGAGAUCGGAAGAGCACACGU
B6: target 1 C4G,A9U (mixed)
RNA 1: CACCCGUGCAAAAAUGCAGGGGUCUAAAACUGAGCGGAUAACCUCUCUAUGG
RNA 2: GGGAAUGGAUCCACAUCUACGAAUUCGUACCAUAGAGAGGUUUUCCGGUCACCGAGAUCGGAAGAGCACACGU
B7: target 1 insC 3' of 11,insG 3' of 7 (mixed)
RNA 1: CACCCGUGCAAAAAUGCAGGGGUCUAAAACUGAGCGGAUAACCUCUCUAUGG
RNA 2: GGGAAUGGAUCCACAUCUACGAAUUCGUACCAUAGAGAGGUCUAUCGCGCUCACCGAGAUCGGAAGAGCACACGU
B8: target 1 C2U,U3C (mixed)
RNA 1: CACCCGUGCAAAAAUGCAGGGGUCUAAAACUGAGCGGAUAACCUCUCUAUGG
RNA 2: GGGAAUGGAUCCACAUCUACGAAUUCGUACCAUAGAGAGGUUAUCCGCCUACCGAGAUCGGAAGAGCACACGU
B9: target 1 U3A,A9C (mixed)
RNA 1: CACCCGUGCAAAAAUGCAGGGGUCUAAAACUGAGCGGAUAACCUCUCUAUGG
RNA 2: GGGAAUGGAUCCACAUCUACGAAUUCGUACCAUAGAGAGGUUCUCCGCACACCGAGAUCGGAAGAGCACACGU
B10: target 1 insU 3' of 20,insU 3' of 5 (mixed)
RNA 1: CACCCGUGCAAAAAUGCAGGGGUCUAAAACUGAGCGGAUAACCUCUCUAUGG
RNA 2: GGGAAUGGAUCCACAUCUACGAAUUCGUACCAUUAGAGAGGUUAUCCGUCUCACCGAGAUCGGAAGAGCACACGU
B11: target 1 A9G,U19C (mixed)
RNA 1: CACCCGUGCAAAAAUGCAGGGGUCUAAAACUGAGCGGAUAACCUCUCUAUGG
RNA 2: GGGAAUGGAUCCACAUCUACGAAUUCGUACCACAGAGAGGUUGUCCGCUCACCGAGAUCGGAAGAGCACACGU
B12: target 1 insG 3' of 11,insA 3' of 8 (mixed)
RNA 1: CACCCGUGCAAAAAUGCAGGGGUCUAAAACUGAGCGGAUAACCUCUCUAUGG
RNA 2: GGGAAUGGAUCCACAUCUACGAAUUCGUACCAUAGAGAGGUGUAUACCGCUCACCGAGAUCGGAAGAGCACACGU
B13: target 1 insU 3' of 13,insG 3' of 10 (mixed)
RNA 1: CACCCGUGCAAAAAUGCAGGGGUCUAAAACUGAGCGGAUAACCUCUCUAUGG
RNA 2: GGGAAUGGAUCCACAUCUACGAAUUCGUACCAUAGAGAGUGUUGAUCCGCUCACCGAGAUCGGAAGAGCACACGU
B14: target 1 insU 3' of 13,insC 3' of 5 (mixed)
RNA 1: CACCCGUGCAAAAAUGCAGGGGUCUAAAACUGAGCGGAUAACCUCUCUAUGG
RNA 2: GGGAAUGGAUCCACAUCUACGAAUUCGUACCAUAGAGAGUGUUAUCCGCCUCACCGAGAUCGGAAGAGCACACGU
B15: target 1 C2A,C6U (mixed)
RNA 1: CACCCGUGCAAAAAUGCAGGGGUCUAAAACUGAGCGGAUAACCUCUCUAUGG
RNA 2: GGGAAUGGAUCCACAUCUACGAAUUCGUACCAUAGAGAGGUUAUCUGCUAACCGAGAUCGGAAGAGCACACGU
B16: target 1 complement block 3-6 (mixed)
RNA 1: CACCCGUGCAAAAAUGCAGGGGUCUAAAACUGAGCGGAUAACCUCUCUAUGG
RNA 2: GGGAAUGGAUCCACAUCUACGAAUUCGUACCAUAGAGAGGUUAUCGCGACACCGAGAUCGGAAGAGCACACGU
B17: target 1 insU 3' of 17,insG 3' of 8 (mixed)
RNA 1: CACCCGUGCAAAAAUGCAGGGGUCUAAAACUGAGCGGAUAACCUCUCUAUGG
RNA 2: GGGAAUGGAUCCACAUCUACGAAUUCGUACCAUAGUAGAGGUUAUGCCGCUCACCGAGAUCGGAAGAGCACACGU
B18: target 1 insU 3' of 13,insU 3' of 2 (mixed)
RNA 1: CACCCGUGCAAAAAUGCAGGGGUCUAAAACUGAGCGGAUAACCUCUCUAUGG
RNA 2: GGGAAUGGAUCCACAUCUACGAAUUCGUACCAUAGAGAGUGUUAUCCGCUCUACCGAGAUCGGAAGAGCACACGU
B19: target 1 insG 3' of 18,insG 3' of 4 (mixed)
RNA 1: CACCCGUGCAAAAAUGCAGGGGUCUAAAACUGAGCGGAUAACCUCUCUAUGG
RNA 2: GGGAAUGGAUCCACAUCUACGAAUUCGUACCAUAGGAGAGGUUAUCCGCGUCACCGAGAUCGGAAGAGCACACGU
B20: target 1 C7U,U19A (mixed)
RNA 1: CACCCGUGCAAAAAUGCAGGGGUCUAAAACUGAGCGGAUAACCUCUCUAUGG
RNA 2: GGGAAUGGAUCCACAUCUACGAAUUCGUACCAAAGAGAGGUUAUUCGCUCACCGAGAUCGGAAGAGCACACGU
B21: target 1 A9U,U10A (mixed)
RNA 1: CACCCGUGCAAAAAUGCAGGGGUCUAAAACUGAGCGGAUAACCUCUCUAUGG
RNA 2: GGGAAUGGAUCCACAUCUACGAAUUCGUACCAUAGAGAGGUAUUCCGCUCACCGAGAUCGGAAGAGCACACGU
B22: target 1 insG 3' of 7,insU 3' of 4 (mixed)
RNA 1: CACCCGUGCAAAAAUGCAGGGGUCUAAAACUGAGCGGAUAACCUCUCUAUGG
RNA 2: GGGAAUGGAUCCACAUCUACGAAUUCGUACCAUAGAGAGGUUAUCGCGCUUCACCGAGAUCGGAAGAGCACACGU
B23: target 1 G17A,C22A (mixed)
RNA 1: CACCCGUGCAAAAAUGCAGGGGUCUAAAACUGAGCGGAUAACCUCUCUAUGG
RNA 2: GGGAAUGGAUCCACAUCUACGAAUUCGUAACAUAAAGAGGUUAUCCGCUCACCGAGAUCGGAAGAGCACACGU
B24: target 1 insU 3' of 20,insC 3' of 11 (mixed)
RNA 1: CACCCGUGCAAAAAUGCAGGGGUCUAAAACUGAGCGGAUAACCUCUCUAUGG
RNA 2: GGGAAUGGAUCCACAUCUACGAAUUCGUACCAUUAGAGAGGUCUAUCCGCUCACCGAGAUCGGAAGAGCACACGU
B25: target 1 C7A,G12C (mixed)
RNA 1: CACCCGUGCAAAAAUGCAGGGGUCUAAAACUGAGCGGAUAACCUCUCUAUGG
RNA 2: GGGAAUGGAUCCACAUCUACGAAUUCGUACCAUAGAGAGCUUAUACGCUCACCGAGAUCGGAAGAGCACACGU
B26: target 1 insA 3' of 15,insG 3' of 6 (mixed)
RNA 1: CACCCGUGCAAAAAUGCAGGGGUCUAAAACUGAGCGGAUAACCUCUCUAUGG
RNA 2: GGGAAUGGAUCCACAUCUACGAAUUCGUACCAUAGAGAAGGUUAUCCGGCUCACCGAGAUCGGAAGAGCACACGU
B27: target 1 insA 3' of 15,insA 3' of 13 (mixed)
RNA 1: CACCCGUGCAAAAAUGCAGGGGUCUAAAACUGAGCGGAUAACCUCUCUAUGG
RNA 2: GGGAAUGGAUCCACAUCUACGAAUUCGUACCAUAGAGAAGAGUUAUCCGCUCACCGAGAUCGGAAGAGCACACGU
B28: target 1 insC 3' of 15,insG 3' of 2 (mixed)
RNA 1: CACCCGUGCAAAAAUGCAGGGGUCUAAAACUGAGCGGAUAACCUCUCUAUGG
RNA 2: GGGAAUGGAUCCACAUCUACGAAUUCGUACCAUAGAGCAGGUUAUCCGCUCGACCGAGAUCGGAAGAGCACACGU

Target: T1, EsCas13d, nuclease-dead
Test: crRNA (strand 1, pre-loaded); Mg2+; 40 mM Tris-HCl pH 7.5, 150 mM NaCl, 6 mM MgCl2, 1 mM DTT, 0.1% Tween-20, 0.2 mg/ml BSA; 25 C; 10 min per concentration, then washed
Details: tags: His6-TwinStrep-SUMO cleaved; N-terminal SNAP kept (SNAP-Surface 488); label: 3' end held by stalled T7 RNA polymerase

Binder | Kd [nM]
B1 | 69 ± 10
B2 | 14.4 ± 1.4
B3 | ~60
B4 | 21 ± 4
B5 | 8.9 ± 0.6
B6 | 3.93 ± 0.23
B7 | 23.8 ± 1.5
B8 | 16.6 ± 1.7
B9 | 14.6 ± 2
B10 | 24 ± 4
B11 | 33.8 ± 3.3
B12 | 40.5 ± 2.5
B13 | 63 ± 23
B14 | 21 ± 4
B15 | 5.88 ± 0.27
B16 | 5.84 ± 0.3
B17 | 21 ± 1.2
B18 | 16.6 ± 2.1
B19 | 37.5 ± 3.1
B20 | 34 ± 4
B21 | 20.5 ± 2.1
B22 | 6.4 ± 0.4
B23 | 57 ± 7
B24 | 62 ± 18
B25 | 16.4 ± 1.1
B26 | 9.3 ± 0.5
B27 | 5.63 ± 0.28
B28 | 17.9 ± 1.3

Reference: paper PMC10786891, “Massively parallel profiling of RNA-targeting CRISPR-Cas13d”
